# Test: yeast display, Sf9 membrane polyspecificity reagent, FACS + sequencing; frameworks hold sequencing errors
# How it was run: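 Galactose-induced (36–48 hours) yeast carrying a synthetic nanobody display library were exposed to 10% biotinylated, detergent-solubilized Sf9 membrane reagent at 4 °C for 1 hour. FACS followed streptavidin microbead enrichment, using low and high (top ~1%) gates for expression (anti-HA) and reagent binding (streptavidin). Colony PCR, MiSeq 2 × 250 sequencing and CDR-length filtering followed. Labels for polyreactivity reflect the gate of origin.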
row,Sequence,polyreactivity (PSR sort gate)
1,QVQLVESGGGLVQAGGSLRLSCAASGSTFEYYAMGWYRQAPGKERELVAAITRRGGSTYYADSVKGRFTISRDNAKNTVYLQMNSLKPEDTAVYYCAAVPTQKSPRTHDFWGQGTQVTVSS,low polyreactivity
2,QVQLVESGGGLVQAGGSLRLSCAASGSTFFANAMGWYRQAPGKERELVAAITIGNTNYADSVKGRFTISRDNAKNTVYLQMNSLKPEDTAVYYCNASHVSHYRARDYWGQGTQVTVSS,low polyreactivity
3,QVQLVESGGGLVQAGGSLRLSCAASGSTFFEYTMGWYRQAPGKEREFVADIRGRDGSTSYADSVKGRFTISRDNAKNTVYLQMNSLKPEDTAVYYCAVGVYPSYRGPTFSTRRDYWGQGTQVTVSS,low polyreactivity
4,QVQLVESGGGLVQAGGSLRLSCAASGSTFFFYAMGWYRQAPGKERELVAAISRSGVSTYYADSVKGRFTISRDNAKNNVYLQMNSLKPEDTAVYYCAKGGSRDRYGYWGQGTQVTVSS,high polyreactivity
5,QVQLVESGGGLVQAGGSLRLSCAASGSTFFGNTMGRYRQAPGKERELVAAISRRGGSTYYADSVKGRFTISRDNAKNTVYLQMNSLKPEDTAVYYCAKYYHSGGYTPGKYDYWGQGTQVTVSS,high polyreactivity
6,QVQLVESGGGLVQAGGSLRLSCAASGSTFFGYAMGWYRQAPGKERELVAAIRYNGGHTYYADSVKGRFTISRDYAKNTVYLQMNRLKPEDTAVYYCAVDVVTSYYELTGSFNYWGQGTQVTVSS,low polyreactivity
7,QVQLVESGGGLVQAGGSLRLSCAASGSTFFGYAMGWYRQAPGKERELVAAITYTGDTTYYADSVKGRFTISRDNAKNTVYLQMNSLNPEDTAVYYCAAGGYPVYTGRGMDYWGQGTQVTVSS,low polyreactivity
8,QVQLVESGGGLVQAGGSLRLSCAASGSTFFHYAMGWYRQAPGKERELVAAIDSNGGSTYYADSVKGRFTISRDNAKNTVYLQMNSLKPEDTAVYYCAADDLAEFEYDYWGQGTQVTVSS,low polyreactivity
9,QVQLVESGGGLVQAGGSLRLSCAASGSTFFLYAMGCYRQAPGNERELVAAISWRGASTYYADSVNGSFTISRDNAKNSVYLQMNSLKPDDTAVYYCAADLLPLYDDWGQGTQVTVSS,high polyreactivity
10,QVQLVESGGGLVQAGGSLRLSCAASGSTFFLYAMGWYRQAPGKERELVAAITYTDGDTYYADSVKGRFTISRDIAKKTVYLQMNSLKPEDTAVYYCAADSWVQFDYWGQGTQVSVSS,low polyreactivity
11,QVQLVESGGGLVQAGGSLRLSCAASGSTFFRNAMGWYRQAPGKERELVAAISKSGTSTYYADSVKGRFTISRDNAKNNVYLQMNSLKPEDTAVYYCAKYGFCYPQSYAYYYWGQGTQVTVSS,high polyreactivity
12,QVQLVESGGGLVQAGGSLRLSCAASGSTFFRYAMGWYRQAPGKEREFVAAITSSGGNTYYADSVKGRFTISRDNAKNTVYFQMNSLKPEDTAVYYCAAVWYSPYVKYNYWGQGTQVTVSS,low polyreactivity
13,QVQLVESGGGLVQAGGSLRLSCAASGSTFFRYAMGWYRQAPGKERELVAAISKSGASTYYADSVKGRFTISRDNAKNTVYLQMNSLKPEDTAVYYCNADVKKSSAREWQYGYDYWGQGTQVTVSS,low polyreactivity
14,QVQLVESGGGLVQAGGSLRLSCAASGSTFFRYAMGWYRQAPGKERELVAAISKSGGTTSYADSVKGRITISRDNAKNTVYLQMNSLKQEDTAVYYCAARVQHIYDWGQGTQVTVSS,high polyreactivity
15,QVQLVESGGGLVQAGGSLRLSCAASGSTFFRYAMGWYRQAPGKERELVAVINRGGSTYYADSVKGRFTISRDNAKNTVYLQMNSLKPEDTAVYYCAKRVFYPGAYRYYYWGQGTQVTVSS,high polyreactivity
16,QVQLVESGGGLVQAGGSLRLSCAASGSTFFSNAMGWYRQAPGKERELVATIRVGGGSTYADSVKGRFTISRDNAKNTVYLQMNSLKPEDTADYYCAADDSDTRYTRSRYGYWGQGTQVTVSS,low polyreactivity
17,QVQLVESGGGLVQAGGSLRLSCAASGSTFFSYAMGWYRQAPGKERELVAAITSNGGTTHYADSVKGRFTISRDNAKNTVYLQMNSLKPEDTADYYCAKAQGHVRGSRGLQGGRYDYWGQGTQVTVSS,low polyreactivity
18,QVQLVESGGGLVQAGGSLRLSCAASGSTFFTNAMGWYRQAPGKERELVAAINFRGSTYYADSVKGRFTISRDNAKNTVYLQMNSLKPEDTAVYYCATDRQRSYRTVRSPIFNYWGQGTQVTVSS,high polyreactivity
19,QVQLVESGGGLVQAGGSLRLSCAASGSTFFTNAMGWYRQAPGKERELVAGISYGGGRTYYADSVKGRFTISLDNAKNTVYLQMNRLKPEDTAVYYCNTVTSQAPYYSYVSWGQGTQVTVSS,high polyreactivity
20,QVQLVESGGGLVQAGGSLRLSCAASGSTFFTNAMGWYRQAPGKERELVATITWSGGSTYADSVKGRFTISRDNAKNTVYLQMNSLKPEDTAVYYCAAESSSYWGDLGGALWLYDYWGQGTQVTVSS,low polyreactivity
21,QVQLVESGGGLVQAGGSLRLSCAASGSTFFVNAMGWYRQAPGKERELVAAISTSGGRTYYADSVKGRFTISRDNAKNTVYLQMNSLKPEDTAVYYCAAFLRSPKGYYYWGQGTQVTVSS,high polyreactivity
22,QVQLVESGGGLVQAGGSLRLSCAASGSTFFVNAMGWYRQPPGKERELVAAISTSGGRTYYADSVKGRFTISRDNAKNTVYLQMNSLKPEDTAVYYCAAYLRSPKGYYYWGQGTQVTVSS,high polyreactivity

row,Sequence,polyreactivity (PSR sort gate)
1,QVQLVESGGGLVQAGGSLRLSCAASGSTFFVYDMGWYRQAPGKERELVAAISISDGGTYYADSVKGRFTISRDNAKNTVYLQMNSQKPVDTAVYYCAADYSERYFRGYDYWGQGTQVTVSS,low polyreactivity
2,QVQLVESGGGLVQAGGSLRLSCAASGSTFFYSMGWYRKAPRKERELVAAISWIDSITYYADSVKGRFTISRDNAKNTVYLQMNSLKPEDIAVYYCAAEGQNEGYDYWVQGTQVTVSS,high polyreactivity
3,QVQLVESGGGLVQAGGSLRLSCAASGSTFFYYAMGWYRQAPGKERELVAAISRNGGSTYYADSVKGRFTISRDNAKNTVYLQMNSLKPEDTAVYYCNAYNLAGRYFDYWGQGTQVTVSS,high polyreactivity
4,QVQLVESGGGLVQAGGSLRLSCAASGSTFFYYAMVWYRQAPGKERELVAAISQSSASTYYADSVKGRFTISRDNAKNTVYLQMNSLKPEDTAVYYCAAARGYWWYDYWGQGTQVTVSS,high polyreactivity
5,QVQLVESGGGLVQAGGSLRLSCAASGSTFGANAMGWYRQAPGKEREFVAAISRSGVRTYYADTVKGRFTMSRDNAKITVYFQMNSLKPEDTAVYYCAADGYWWTYTRYDYWGQGTQVTVSS,low polyreactivity
6,QVQLVESGGGLVQAGGSLRLSCAASGSTFGAYAMGWYRQAPGKERELVAAINRGTSTNYADSVKGRFTISRDNAKNTVYLQMNSLKPEDTAVYYCAVAVLPWQLYSESYAEYDYWGQGTQVTVSS,low polyreactivity
7,QVQLVESGGGLVQAGGSLRLSCAASGSTFGAYVMGWSRQAPGKERELVAGITYSGGTTYYAYSVKGRFTISRDNSKNTVYLQMNILKPEDTAVYYCNVSQHYSRRLKKWQMDYWGQGTQVTVSS,high polyreactivity
8,QVQLVESGGGLVQAGGSLRLSCAASGSTFGDNAMGWYRQAPGKEREFVATISWDTATTYYADSVKARFTISRDNAKNTVYLQMNSLKPEDTAVYYCAARATAYYTVPSYADVDYWGQGTQVTVSS,low polyreactivity
9,QVQLVESGGGLVQAGGSLRLSCAASGSTFGDNAMGWYRQAPGKERELVARISSGGNTYYADSVKGRFTISRDNAKNTVYLQMNSLKPEFTAVYYCAADIIVRYKKFPYYYWGQGTQVNVSS,high polyreactivity
10,QVQLVESGGGLVQAGGSLRLSCAASGSTFGDYAMGWYRQAPGKERELVAAISRSAGSTYYADSVKGRFTISRDNAKNTVYLQMNSLKPEDTAVYYCAAEYQYHWAYIYYYWGQGTQVTVSS,high polyreactivity
11,QVQLVESGGGLVQAGGSLRLSCAASGSTFGDYAMGWYRQGPGKERELVASINQNGGDTYYADSVKGRFTISRDNAKNTVYLQMNSLKPEDTAVYYCAAEAGYYFQTVAIDMGYWGQGTQVTVSS,low polyreactivity
12,QVQLVESGGGLVQAGGSLRLSCAASGSTFGEYAMGWYRQAPGKERELVAAISWSGDTTYYADSVKGRFTISRDNAKNTVYLQMNSLKPEDTAVYYCAARDYDRVGEDYWGQGTQVTVSS,low polyreactivity
13,QVQLVESGGGLVQAGGSLRLSCAASGSTFGFNAMGWYRQAPGKERELVAAITKSGGSTYYADSVKGRFTISRDNAKNTVYLQMNSLKPEDTAVYYCAARRSGRKYDYWGQGTQVTVSS,high polyreactivity
14,QVQLVESGGGLVQAGGSLRLSCAASGSTFGFNVMGWYRQAPGKERELVAVITSDGNTYYADSVKGRFTISRDNAKNTVYFQMNSLIPEDTAVYYCAVSELGTPYGYWGQGTQVTVSS,low polyreactivity
15,QVQLVESGGGLVQAGGSLRLSCAASGSTFGFYAMGWYRQAPGKERELVAAITASGDSTYYADSVKGRFTISRDNAKNTVYLQMNSLKPEDTAVYYCNAVWRYYRKRRAGDFGYWGQGTQVTVSS,low polyreactivity
16,QVQLVESGGGLVQAGGSLRLSCAASGSTFGFYAMGWYRQAPGKERELVAAITGGGSTNYADSVKGRFTISRDNAKNTVYLQMNSLNPEDTAVYYCAVVQRYWYPGIVPYDYWGQGTQVTVSS,high polyreactivity
17,QVQLVESGGGLVQAGGSLRLSCAASGSTFGGNAMGWYRQAPGKERELVAAIDSGGGTNYADSVKGRFTISRDNAKNTVYLQMNSLKPEDTAVYYCNADWAVRSTQNSSSGHVYWGQGTQVTVSS,low polyreactivity
18,QVQLVESGGGLVQAGGSLRLSCAASGSTFGGNAMGWYRQAPGKERELVAAITIGGRTNYADSVKGRFTISRDNAKNTVYLQMNSLKPEDTAVYYCAKDRDQWQDYWGQGTQVTVSS,low polyreactivity
19,QVQLVESGGGLVQAGGSLRLSCAASGSTFGGNAMGWYRQAPGKERELVASISDGGRTNYADSVKGRFTISRDNAKNTVYLQMNSLKPEDTAVYYCAADYAPVAFDYWGQGTQVTVSS,low polyreactivity
20,QVQLVESGGGLVQAGGSLRLSCAASGSTFGGNGMGWYRQAPGKKGSWVAAISWSGGSTYYADSVKGRFTISRDNAKNTVYLQMNSLKPEDTAVYYCAARTVYRGRAYDYWGQGTQVTVSS,high polyreactivity
21,QVQLVESGGGLVQAGGSLRLSCAASGSTFGGNVMGWYRPAPGKERELVATISRSGGSTYYADSVKGRFTISRDNAKNTVYLQMNSLKPEDTAVYYCAARTLHYSPSTFYRYQYDYWGQGTQVTVSS,high polyreactivity
